Measured values taken from the supplement of paper PMC10567573.

B1: C2orf65 (parent)
chain: QLDWDELETNQQHFHALCHSLLVS
B2: SLC19A2 (parent)
chain: FHHIPSTCQRVNGIKVQNGGIVTD

Variants of: B1
Assay: protein stability index of a GFP-peptide fusion (GPS, HEK-293T) (PSI 1-6); higher = more stable
Details: c terminus: a fixed tail appended
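Also: lentivirally expressed fusions sorted by FACS into six bins by GFP to DsRed ratio, PSI derived from sequencing read proportions per bin multiplied by bin number.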

Protein stability index, by site and new letter:
L22: R 2.96 | P 3.16 | Q 2.81 | W 1.64 | T 3.08 | Y 2.44 | V 2.34 | S 2.58
V23: I 1.96 | T 2.35 | L 1.92 | C 2.09 | G 3.26 | M 1.99 | P 2.95 | N 2.75 | H 2.36 | K 2.45 | S 2.63 | E 2.68 | W 1.57 | F 1.69 | Y 2.27 | D 3.38 | Q 2.48 | A 2.68 | R 2.01
S24: P 2.5 | W 1.38 | F 1.7 | V 1.56 | C 2.18 | A 2.11 | N 2.25 | T 1.89 | Q 2.04 | R 2.1 | M 2.02 | H 2.33 | Y 2.54 | E 2.11 | L 2.73 | G 1.78 | K 2.27 | I 2.99 | D 3.08

Variants of: B2
Assay: as above
Details: c terminus: a fixed tail appended

Protein stability index of substitutions, site by site:
S6: H 2.02 | G 1.93 | T 1.6 | L 2.36 | K 1.86 | I 1.71 | F 2.69 | Y 2.01 | A 2.17 | M 1.92 | C 2.27 | D 2.28 | R 1.9 | V 2.07 | P 1.82 | N 1.6 | W 3.58 | E 2.22 | Q 2.32
G13: D 2 | M 2.08 | T 2.28 | R 2.21 | S 1.97 | V 1.73 | Y 2.19 | I 1.75 | N 2.01 | F 1.71 | L 1.58 | Q 2.73 | A 1.77 | C 1.89 | P 1.85 | E 2.13 | H 1.64 | K 2.5
P5: M 2.23 | K 2.61 | E 2.83 | I 1.97 | C 1.86 | W 2.91 | L 1.86 | T 2.67 | N 2.11 | G 2.12 | Q 1.89 | R 1.58 | Y 2.33 | V 1.91 | H 1.79 | D 2.71 | S 3.55 | A 1.97
V11: T 2.04 | S 1.93 | D 2.42 | P 2.54 | M 2.26 | K 2.11 | F 1.81 | C 1.49 | A 2.25 | N 2.49 | G 2.19 | L 1.59 | Y 2.09 | Q 2.48 | E 2.08 | W 1.44 | I 2.43 | R 3.19 | H 1.83
H3: Q 1.71 | E 2.53 | W 2.18 | C 1.92 | K 2.79 | R 2.53 | P 2.03 | D 3 | Y 2.11 | N 2.25 | I 1.59 | L 1.96 | M 2.8 | S 1.33 | V 3.16 | F 1.39 | T 2.06 | A 2.22 | G 2.31
Q9: G 1.68 | H 1.78 | A 1.46 | R 1.77 | S 1.67 | K 1.55 | E 2.29 | F 2.35 | L 2.92 | P 1.81 | M 2.27 | N 2.08 | C 2.13 | I 1.65 | V 2.04 | D 1.8 | T 1.84
H2: L 2.21 | G 3.01 | K 2.52 | Q 2.83 | D 3.31 | T 2.4 | M 2.47 | A 2.73 | V 2.35 | W 3 | R 2.61 | S 3.17 | Y 1.85 | N 3.73 | I 2.04 | C 2.28 | P 3.26 | F 2.03 | E 3.65
K15: H 2.37 | D 2.57 | Q 2.47 | V 2.14 | P 2.33 | E 2.22 | G 2.38 | L 2.15 | N 2.05 | I 2.14 | T 2.19 | M 1.64 | F 2.49 | A 1.91 | S 2.24 | R 2.2 | C 2.2 | Y 2.47
T7: E 2.32 | G 1.57 | C 2.21 | F 3.29 | M 2.03 | H 2.3 | K 2.23 | S 2.31 | Q 1.83 | Y 1.91 | V 2 | A 1.39 | I 1.45 | R 1.77 | P 1.91 | N 2.42 | L 2.59 | D 2.58
F1: I 3.46 | H 3.53 | W 1.85 | R 3.64 | D 4.42 | L 2.81 | G 3.78 | V 4.14 | K 2.78 | P 3.84 | S 3.48 | N 3.25 | E 4.27 | C 3.84 | Y 2.5 | A 3.95 | Q 3.71 | T 3.66 | M 3.33
N12: K 2.22 | E 2.04 | V 1.82 | Q 2.43 | F 1.74 | S 2.36 | G 2.07 | A 1.84 | H 1.89 | R 2.47 | D 2.86 | I 1.42 | Y 1.78 | W 1.01 | C 1.84 | T 1.78 | L 2.1 | P 2.05
I4: G 2.48 | M 2.01 | K 1.94 | N 2.07 | L 2.37 | Y 2.67 | D 2.91 | H 1.85 | V 1.67 | Q 2.1 | E 2.77 | R 2.02 | C 1.67 | T 2 | F 3.14 | A 2.11 | S 3.05 | P 2.37
C8: F 1.97 | R 3.48 | W 1.93 | E 2.18 | M 2.39 | N 2.69 | P 1.94 | A 2.36 | G 2.07 | Q 1.97 | V 2.3 | H 2.13 | S 2.27 | D 2.38 | L 2.3 | K 1.83 | T 2.84 | Y 1.86 | I 1.99
V16: L 1.79 | E 1.49 | M 2.44 | D 2.31 | G 2.13 | K 2.02 | H 2.15 | C 2.2 | I 1.51 | F 1.6 | A 2.13
R10: P 1.78 | D 2.65 | A 1.81 | H 2.5 | W 2.97 | G 2.23 | Y 2.07 | C 2.36 | M 1.67 | Q 1.87 | S 1.89 | E 2.46 | N 1.6 | L 2.46 | I 1.98 | V 2.46 | K 1.91 | T 1.99 | F 1.7
I14: A 2.2 | K 2.19 | S 2.62 | C 1.72 | P 2.19 | Q 2.14 | W 2.7 | G 2.6 | L 2 | H 2.31 | E 2.69 | F 2.32 | M 2.23 | N 2.07 | T 2.17 | V 1.69 | Y 1.47 | R 2.18 | D 1.88
